Source: US10077303B2, “Anti-neurotensin antibodies and uses thereof” (INSERM (INSTITUT NATIONAL DE LA SANTÉ ET DE LA RECHERCHE …, priority 2014, dated 2018)

What was measured:
LNM-R cells [1] = test: cisplatin test, LNM-R tumor xenograft; assay type: in vivo, NMRI nu/nu mice; conditions: for day the experiment was stopped because of the large size of the tumors: control group stopped after 21
Description: (§1) FIG. 6. […] A) LNM-R or R-SI NTSR1 cells (LNM-R expressing sh-RNA for NTSR1) were injected into the left and the right flanks of the mice, respectively; Mice were treated with PBS, or 15 mg/kg NTSp27-7.4 every other day and/or with cisplatin 1 mg/kg day 1, 3, 5, 7, 15, 17, and 19. At day one, 9 and 8 mice were randomized for the size of the LNM-R tumors; reaching approximately 95 mm3 on average. Mice were treated every other day and measured every day. B) Tumor growth rate from day one generated by R-SI NTSR1 cells (right flank).
(§2) Cisplatin test, 1×10^6 LNM-R cells and 1×10^6R-SI NTSR1 were subcutaneously inoculated in NMRI nu/nu mice, LNM-R in the left flank and R-SI NTSR1 in the right flank. When tumors generated by LNM-R reached an average volume of 95 mm^3, mice were randomized in 5 groups of 8 to 10 mice. Group 1 was administered with PBS, group 2 with antibody NTSp27-7.4 (i.p. every other day, 15 mg/kg) for total of 13 times and group 3 with mouse IgG (i.p. every other day, 15 mg/kg). Group 4 was administered with PBS and cisplatin (1 mg/kg at day 1,3 5 7, 15, 17, and 19) and groups 5 with antibody NTSp27-7.4 (i.p. every other day, 15 mg/kg) and cisplatin (1 mg/kg at day 1,3 5 7, 15, 17, and 19). The volume of tumor was measured every other day.

R-SI NTSR1 cells [2] = test: cisplatin test, R-SI NTSR1 tumor xenograft; assay type: in vivo, NMRI nu/nu mice
Description: as §1, §2

A2780 cells = test: A2780 ovarian cancer tumor xenograft, cisplatin response; assay type: in vivo, NMRI-Nude Foxn1 mice
Description: FIG. 8. […] 3 million A2780 cells were injected into mice. When tumors generated by A2780 reached an average volume of 200 mm^3, mice were randomized into 4 groups. Mice were treated with PBS, or 15 mg/kg NTSp27-7.4 every other day and/or with cisplatin 1 mg/kg day at 1, 3, 5, and 7 days. Results are the mean of 8 to 12 mice performed in two different independent experiments.
A2780 cells (3×10^6) cells were combined with […] and 50 μl […]® (a gelatinous protein mixture), then injected subcutaneously into the right hind leg of 4 week old female NMRI-Nude Foxn1 mice. Treatment started when tumors reached approximately 200 mm3. Tumor volume was calculated every two days by using the following equation: tumor volume (mm3)=4/3×π×(length/2)×(width/2)×(height/2). After treatment, the mice were sacrificed and tumors were fixed in formalin.

MDA-MB 231 cells = test: MDA-MB 231 breast cancer tumor xenograft; assay type: in vivo, NMRI nu/nu mice; conditions: 15 mg/kg i.p. every other day
Description: (§3) FIG. 5. NTSp27-7.4 inhibits experimental tumor growth generated by breast cancer cell lines. Tumor growth generated by MDA-MB 231 cells (left flank) (A), and MDA Si2 cells (right flank) (B), and treated for 24 days with PBS, or 15 mg/kg […]. At day one, 7, and 6 mice were randomized for the size of MDA-MB231 tumors size; reaching approximately 50 mm3. Mice were treated and measured every other day.
(§4) 3×10^6 MDA-MB 231 cells and 3×10^6 MDA si2 were subcutaneously inoculated in 100 μl of […]® (a gelatinous protein mixture) the left flank and the right flank of the NMRI nu/nu mice, respectively. When tumors generated by MDA reached an average volume of 50 mm^3, mice were randomized in 2 groups, then administered antibody NTSpP27-7.4 (i.p. every other day, 15 mg/kg) for total 12 times. PBS was used as the vehicle control.

R-SI NTSR1 cells [3] = test: R-SI NTSR1 tumor xenograft (same mice, right flank); assay type: in vivo, NMRI nu/nu mice; conditions: non-expressing NTSR1 tumors, 15 mg/kg
Description: (§5) FIG. 4. NTSp27-7.4 inhibits experimental tumor growth generated by lung cancer cell lines. A) LNM-R or R-SI NTSR1 cells (LNM-R expressing sh-RNA for NTSR1) were injected into the left and the right flank of the mice, respectively. Here is shown an example of a mouse from each group after 15 days of treatment. B) Tumor growth generated by LNM-R cells (left flank) xenografted into nude mice and treated for 15 days with PBS, or 15 mg/kg NTSp27-7.4. At day one, 10, and 8 mice were randomized on LNM-R tumors size reaching approximately 40 mm3 for control and NTSp27-7.4 group, respectively. Mice were treated every other day and measured every day. C) Tumor growth generated by R-SI NTSR1 cells (right flank) xenografted into the same mice. D and E) Tumor growth rate from day one generated by LNM-R cells (left flank) and R-SI NTSR1 cells (right flank).
(§6) 1×10^6 LNM-R cells and 1×10^6R-SI NTSR1 were subcutaneously inoculated in NMRI nu/nu mice, LNM-R in the left flank and R-SI NTSR1 in the right flank. When tumors generated by LNM-R reached an average volume of 40 mm^3, mice were randomized in 2 groups, then administered antibody NTSpP27-7.4 (i.p. every other day, 15 mg/kg) for total 8 times. PBS was used as the vehicle control. The volume of tumor was measured daily.

LNM-R cells [4] = test: LNM-R lung cancer tumor xenograft; assay type: in vivo, NMRI nu/nu mice; conditions: 15 mg/kg i.p. every other day
Description: as §5, §6

[5] = tested on: Hep 3B, HepR1a, and HepR2b cells; test: collagen type 1 invasion assay of hepatocellular carcinoma cells; assay type: cell-based; conditions: Hep-R1a and Hep-R1b; 3.75 μg/ml purified antibody
Description: FIG. 3. […] A) Migration in a collagen 1 invasion assay of Hep 3B, HepR1a, and HepR2b cells. Results represent the mean±SEM of 3 experiments. Results are expressed as a % on invasive cells of control cells, Hep3B. […] B) Migration in a collagen type 1 invasion assay of Hep 3B, HepR1a, and HepR2b cells in a presence of 3.75 μg/ml of purified NTSp27-7.4 or mouse IgG. Results represent the mean±SEM of 3 experiments. Results are expressed as a % on invasive cells of respective control cells.
(§7) The cell culture insert (8 μm, Beckton Dickinson®) was coated with type I collagen (100 μl/well, 4×10^2 μg/ml, Sigma®) at 37° C. 24 h before the assay. 1 million MCF, NTS-h, Hep 3B, HepR1a, and HepR2b cells were seeded in the insert with 250 μl of serum free medium in presence or absence of 7 μg antibodies NTSp27-7.4. Outside the insert, 750 μl medium with 10% FCS was added in the well as chemoattractant. After 48 h of incubation, the non-invading cells and collagen are removed from the upper surface of the membrane by scrubbing with a cotton swab. Invading cells (those adhering to the bottom surface of the membrane) were fixed and stained with the Kwif diff stain kit(Thermo®) and the number of stained cells were counted with an inverted microscope at 200× magnification.

MDA si2 cells = test: MDA Si2 tumor xenograft (same mice, right flank); assay type: in vivo, NMRI nu/nu mice; conditions: MDA Si2 tumors (NTSR1-)
Description: as §3, §4

[6] = tested on: MCF-7 cell overexpressing NTS; test: invasion test on type I collagen of MCF-7 cells overexpressing NTS (NTS-h); assay type: cell-based; conditions: NTS-overexpressing clones vs MCF-7; EGF 100 ng/mL; 7 μg antibody
Description: The experiment was repeated twice.
as §7

## N.N.[Cl][Pt][Cl] [cisplatin, reference compound]
LNM-R cells [1]; cisplatin 1 mg/kg day 1,3,5,7,15,17,19, IgG 15 mg/kg every other day
  LNM-R tumor growth rate as compared to PBS treated mice: not altered
LNM-R cells [1]
  day the experiment was stopped because of the large size of the tumors: 23 days
R-SI NTSR1 cells [2]; cisplatin 1 mg/kg, growth ratio to D1
  R-SI NTSR1 tumor size: decreased
A2780 cells; cisplatin 1 mg/kg at 1, 3, 5, and 7 days
  A2780 tumor growth rates as compared to PBS treated mice: slightly but not significantly altered

B1: NTSp27-7.4: NTS neutralizing monoclonal antibody from hybridoma clone 7.4; VH SEQ ID NO:1, VL SEQ ID NO:5 (antibody, V domains shown)
VH: DVKLVESGGGLVKLGGSLKLSCAASGFTFSGYYMSWVRQTPEKRLELVAAINNYGDNTNYPDTVKGRFSVSRDNAKNTLYLEMNSLKSEDTALYYCARLANYANQRGAMDYWGQGTSVTVSS
VL: DIQMTHTTSSLSASLGDRVTISCRASQDIANYLNWYQQKPDGTVTLLIYYTSRLHSGVPSRFSGSGSGTDYSLTINNLDQEDIATYFCQQGYTLPPTFGGGTKLEIK
modifications: Synthetic VH sequence; Synthetic VL sequence
LNM-R cells [1]; antibody 15 mg/kg every other day, with or without cisplatin 1 mg/kg
  LNM-R tumor size: smaller
LNM-R cells [1]
  day the experiment was stopped because of the large size of the tumors: 25 days
MDA-MB 231 cells; 24 days
  MDA-MB231 tumor growth as compared to PBS treated animals: strong reduction
MDA-MB 231 cells; PBS 4.4±0.33
  tumor growth rate from D1: 1.5±0.1 fold
MDA-MB 231 cells; control 11.63±1
  tumor doubling time after 24 days of treatment: 52.8 ± 17.6 days
R-SI NTSR1 cells [2]; combined treatment of NTSp27-7.4 with cisplatin
  R-SI NTSR1 tumor growth rate: do not change
R-SI NTSR1 cells [3]
  size of the tumor and growth rate vs PBS: not different
A2780 cells; antibody 15 mg/kg every other day, with or without cisplatin 1 mg/kg, PBS 2062±371.5, p=0.054 vs PBS, p=0.0058 vs cisplatin
  A2780 tumor size: 1280±262.0 mm^3
LNM-R cells [4]; 15 days, vs PBS
  tumor size smaller as compared to controls: 2.6 times
LNM-R cells [4]; PBS 24.68±4.05
  tumor growth from D1: 8.22±1.84 fold
LNM-R cells [4]; control 3.43±0.34
  tumor doubling time after 16 days of treatment: 5.11 ± 0.38 days
[5]
  invasive rate of the cells expressing NTS and NTSR1: reduced
MDA si2 cells
  tumor sizes, growth rate and doubling time vs PBS: no difference
[6]
  induction of invasiveness induced or not by EGF: inhibited
